Data as given in the supplement of paper PMC10567573.

B1: CDKN1A (parent)
chain: RRQTSMTDFYHSKRRLIFSKRKP
B2: NP_006221.1 (parent)
chain: CQPISFSGFGAEDDDLGGLGLGP

Variants of: B1
Assay: protein stability index of a GFP-peptide fusion (GPS, HEK-293T) (PSI 1-6); higher = more stable
Conditions: c terminus: native

Protein stability index, by site and new letter:
K22: T 2.58; F 1.77; L 1.74; D 1.85; Q 2.42; A 1.72; M 3.93; W 2.91; V 3.36; Y 2.55; N 3.35; R 4.35; I 2.35; S 3.2
S19: K 1.91; C 2.57; T 1.77; L 2.33; M 2.96; Y 2.84; H 1.53; P 2.08; Q 2.08; F 2.44; I 2.54; N 1.85; D 1.43; W 1.71; R 2.46
P23: V 2.57; G 2.48; M 2.46; F 2.76; Y 3.15; D 2.49; L 2.84; W 3.55; K 2.95; I 2.74; A 1.85; C 3.15
R21: S 3.09; N 2.79; L 2.67; F 2.03; A 2.5; V 3.09; E 3.44; K 3.61; C 3.54; G 3.01; M 3.37; I 4.52; Y 2.97; P 2.73; Q 2.4; T 3.55
K20: Y 1.9; M 1.81; V 2.1; R 2.21; P 1.54; A 2.73; F 2.31; S 2.23; E 2.33; N 1.03

Variants of: B2
Assay: as above
Conditions: c terminus: native

Protein stability index: each site, then its substitutions
F9: E 2.98; R 2.04; T 2.7; L 2.23; Q 2.54; C 2.36; W 2.53; Y 2.01; K 2.4; P 3.23; M 2.41; D 3.32
S7: N 3.37; Y 2.6; K 2.77; G 2.87; A 1.89; P 4.14; I 2.13; W 2.42; L 2.43; R 2.56; M 2.47
P3: N 2.2; G 2.3; H 2.06; D 2.2; I 2.29; Q 2.42; S 2.37; A 2.19; C 2.12; M 2.15; L 2.1; F 1.94; T 2.09
S5: T 2.41; G 2.36; D 2.69; R 2.14; Y 2.25; V 2.54; A 2.77; H 2.42; C 2.16; M 2.46; P 2.42
G8: L 1.97; Q 1.87; P 3.55; M 2.23; D 2.05; Y 2.31; K 2.48; V 2.16; W 2.19; T 2.34; C 1.96; F 2.39; I 2.06
P23: H 3.99; E 4.96; Q 4.25; T 3.8; N 4.72; M 2.91; C 3.17; K 4.66; V 3.45
G10: Q 2.3; R 2.21; W 1.9; S 1.95; F 2.06; V 2.2; P 1.83; C 2.04; K 1.96; H 1.99; I 2.08; Y 1.94
D13: G 2.53; A 2.46; Q 2.21; L 2.27; P 2.08; M 2.24; I 2.5; E 2.22; H 2.2; K 1.93; C 2.42; Y 2.02; V 2.28
F6: H 3.48; I 3.63; D 4.57; C 3.41; N 4.41; W 2.22; K 4.18; V 3.43; R 3.86; L 3.5; A 3.88; G 4.16; E 4.72; T 3.93
C1: M 2.34; A 2.11; E 2.53; K 2.06; N 2.28; Y 2.18; D 2.57; G 2.41; T 2.14; P 2.33
D15: I 2.4; A 2.28; T 2.52; N 2.18; F 2.32; V 2.29; Y 2.35; P 2.38; W 2.44; K 2.2; R 2.13; E 2.15; S 2.38
A11: D 2.37; F 1.95; M 2.04; S 2.22; I 2.65; Q 2.32; N 2.09; K 2.09; L 1.81; Y 2.06; T 2.26; H 2.37; E 2.02; W 2.06; R 2.32; P 2.17
G22: E 2.13; F 2.4; S 2.1; W 2.46; Y 2.59; M 2.32; R 3.32; I 2.37; V 2.11; A 2.29; P 4.39
G17: C 2.2; H 2.17; I 1.93; A 2.16; N 2.36; K 2.08; S 2.26; Q 2.12; Y 2.15
I4: K 2.05; C 2.43; W 2.25; G 2.29; A 2.17; M 2.21; H 2.25; Y 2.09; T 2.47; Q 2.15; D 2.48; S 2.31; P 2.2; V 2.54; L 2.11
L19: H 2.96; I 2.13; E 2.49; P 2.7; S 2.91; N 2.54; D 2.39; F 2.51; A 2.72
E12: P 2.07; K 2.17; L 1.88; T 2.06; W 2.29; Y 2.12; I 1.94; S 2.44; G 2.5; C 2.43
G20: K 4.31; F 3.81; Q 2.69; R 3.93; Y 2.83; I 3.2; N 3.93; M 2.77; T 3.68; C 2.51; W 3.19
Q2: R 2.17; M 2.16; T 2.16; S 2.64; L 2.51; V 1.98; Y 2.09; W 2.13; N 2.31; K 2.22; F 1.99; I 2.16
L16: A 2.59; S 2.28; D 2.22; Y 2.27; K 2.25; M 2.45; F 2.23; T 2.35; E 1.85
D14: M 2.29; T 2.18; H 2.27; P 2.19; Y 2.12; C 2.12; V 2.12; W 2.48; E 2.17; R 1.99
L21: C 3.02; F 4; Q 4.85; G 4.98; M 3.33; K 3.95; P 5.09; Y 4.14; H 4.76; R 2.74; W 4.11; T 3.94
G18: Q 2; F 2.24; E 2.42; M 1.99; V 2.17; P 1.99; R 2.31; N 2.16; A 2.13; D 2.19; W 2.57; T 2.23
